This assay concerns the target murine GM-CSF receptor (murine) (UniProt Q00941). The assay is described as follows: cell-based or functional assay.
Sequence of UniProt Q00941 (Q00941 30-388, chain 1 of 2): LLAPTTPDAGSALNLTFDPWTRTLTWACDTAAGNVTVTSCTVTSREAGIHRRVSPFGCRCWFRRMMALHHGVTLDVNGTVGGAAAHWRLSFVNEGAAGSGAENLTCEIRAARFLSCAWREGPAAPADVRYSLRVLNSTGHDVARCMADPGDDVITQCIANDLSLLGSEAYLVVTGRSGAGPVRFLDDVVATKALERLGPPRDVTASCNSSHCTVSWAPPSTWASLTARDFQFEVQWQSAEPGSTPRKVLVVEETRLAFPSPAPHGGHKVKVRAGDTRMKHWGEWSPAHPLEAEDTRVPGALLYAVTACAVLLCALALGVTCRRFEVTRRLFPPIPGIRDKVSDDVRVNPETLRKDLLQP
Sequence of UniProt Q00941 (P26955 23-896, chain 2 of 2, further chain): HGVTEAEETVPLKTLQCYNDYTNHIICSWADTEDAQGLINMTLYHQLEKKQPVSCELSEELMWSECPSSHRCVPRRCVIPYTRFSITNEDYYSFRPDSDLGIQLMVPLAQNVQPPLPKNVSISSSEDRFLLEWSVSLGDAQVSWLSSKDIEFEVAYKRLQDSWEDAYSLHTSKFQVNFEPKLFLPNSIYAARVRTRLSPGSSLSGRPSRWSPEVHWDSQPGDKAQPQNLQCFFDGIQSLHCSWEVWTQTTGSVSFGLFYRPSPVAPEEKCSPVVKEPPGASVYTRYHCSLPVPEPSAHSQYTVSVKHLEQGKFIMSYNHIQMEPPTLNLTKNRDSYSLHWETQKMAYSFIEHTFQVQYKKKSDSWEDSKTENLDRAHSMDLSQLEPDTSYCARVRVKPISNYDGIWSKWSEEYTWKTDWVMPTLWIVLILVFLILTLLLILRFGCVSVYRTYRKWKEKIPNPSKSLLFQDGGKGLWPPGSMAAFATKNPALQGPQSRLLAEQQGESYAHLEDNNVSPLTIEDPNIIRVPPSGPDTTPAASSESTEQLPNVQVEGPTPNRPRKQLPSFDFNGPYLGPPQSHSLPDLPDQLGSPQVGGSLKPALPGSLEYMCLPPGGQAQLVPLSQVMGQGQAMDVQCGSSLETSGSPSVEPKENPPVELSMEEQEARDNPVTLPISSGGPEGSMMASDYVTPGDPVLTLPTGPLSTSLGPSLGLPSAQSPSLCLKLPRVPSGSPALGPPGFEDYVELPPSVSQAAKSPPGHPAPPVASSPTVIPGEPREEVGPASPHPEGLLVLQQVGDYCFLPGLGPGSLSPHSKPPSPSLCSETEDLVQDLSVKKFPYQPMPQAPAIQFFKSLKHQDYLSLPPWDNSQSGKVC

The substance “murine GM-CSF fused to the S. cerevesiae Gas1 GPI modification signal sequence (from UniProt P01587 18-141; P22146 474-559) (other; the values are: proliferation increase vs soluble GM-CSF)” had a proliferation of FDC-P1 cells (Biotrak BrdU cell proliferation ELISA) of 25%.
